Tested on: peptide library, one residue held at a place counted from the S/T acceptor
Assay: relative phosphorylation of the sub-library (ratio to the mean residue at this position); higher = residue favoured
Procedure, shortened: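 Purified recombinant kinases (human or orthologue constructs) were incubated in 384-well plates with biotinylated degenerate peptide sub-libraries, each fixing one residue at one position around a central Ser/Thr. Peptides were at 50 μM, with 50 μM ATP spiked with γ-32P-ATP, for 90 min under kinase-specific conditions. Spots on streptavidin membranes were phosphorimaged and quantified by densitometry. Relative sub-library phosphorylation is a ratio to the mean residue at that position.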

Sequence of TLK2, construct: aa388-end, human (Q86UE8 388-772, looked up): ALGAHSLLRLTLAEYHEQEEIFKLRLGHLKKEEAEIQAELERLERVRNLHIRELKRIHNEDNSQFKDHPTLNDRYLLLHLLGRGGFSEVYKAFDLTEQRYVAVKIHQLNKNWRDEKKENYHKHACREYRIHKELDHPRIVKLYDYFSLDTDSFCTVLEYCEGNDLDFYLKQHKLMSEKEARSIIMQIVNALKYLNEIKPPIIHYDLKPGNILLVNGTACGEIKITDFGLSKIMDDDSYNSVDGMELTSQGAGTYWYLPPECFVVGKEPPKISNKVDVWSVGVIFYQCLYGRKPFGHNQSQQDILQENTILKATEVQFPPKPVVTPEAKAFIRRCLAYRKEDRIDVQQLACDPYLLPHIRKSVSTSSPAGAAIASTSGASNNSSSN

TLK2, construct: aa388-end, human (from UniProt Q86UE8)
relative phosphorylation
Conditions	at +1	at +2	at +3	at +4	at -1	at -2	at -3	at -4	at -5
A fixed	0.501	0.95	1.3	1.23	1.13	1.14	1.07	1.1	1.22
D fixed	0.281	1.07	1.01	1.06	0.949	2.24	2	1.67	1.91
E fixed	0.329	0.512	1.33	0.879	0.751	3.21	1.46	1.68	1.45
F fixed	0.533	1.32	1.19	1.26	1.04	0.553	0.674	0.878	0.801
G fixed	0.36	1.69	1.69	1.24	0.72	1.69	1.42	1.27	1.19
H fixed	0.799	1.45	0.932	0.899	1.6	1.05	0.979	1.07	1.05
I fixed	0.995	0.768	0.583	0.843	0.542	0.435	0.531	0.668	0.621
K fixed	0.624	0.451	0.52	0.603	0.95	0.502	0.702	0.703	0.879
L fixed	1.34	0.873	0.654	0.867	0.61	0.418	0.637	0.678	0.663
M fixed	2.11	1.27	0.823	0.913	0.862	0.592	0.77	0.857	0.737
N fixed	2.41	0.671	0.682	0.692	1.29	1.22	1.26	1.19	1.08
P fixed	0.225	1.03	1.66	1.79	0.634	0.77	1.36	1.17	1
Q fixed	2.67	1.19	0.765	0.782	1.23	1.06	0.972	0.852	0.865
R fixed	1.53	0.482	0.483	0.506	0.827	0.499	0.743	0.674	0.814
V fixed	1.06	0.675	0.814	0.944	0.807	0.495	0.584	0.684	0.72
W fixed	0.686	1.62	1.42	1.35	1.58	0.5	0.953	1.06	1.1
Y fixed	0.543	0.974	1.13	1.13	1.48	0.638	0.879	0.803	0.894
pThr fixed	0.552	0.633	1.09	1.41	0.434	0.883	1.29	1.31	1.31
pTyr fixed	0.65	1.52	1.94	1.76	1.4	2.55	1.35	1.36	1.4
